Laboratory results reported in patent US20180193430, “COMPOSITIONS AND METHODS TO INHIBIT VIRAL REPLICATION” (published 2018).

T1: RIG-I-N495D (Homo sapiens, UniProt O95786 SEQ:1-925, N495D)
T1 sequence: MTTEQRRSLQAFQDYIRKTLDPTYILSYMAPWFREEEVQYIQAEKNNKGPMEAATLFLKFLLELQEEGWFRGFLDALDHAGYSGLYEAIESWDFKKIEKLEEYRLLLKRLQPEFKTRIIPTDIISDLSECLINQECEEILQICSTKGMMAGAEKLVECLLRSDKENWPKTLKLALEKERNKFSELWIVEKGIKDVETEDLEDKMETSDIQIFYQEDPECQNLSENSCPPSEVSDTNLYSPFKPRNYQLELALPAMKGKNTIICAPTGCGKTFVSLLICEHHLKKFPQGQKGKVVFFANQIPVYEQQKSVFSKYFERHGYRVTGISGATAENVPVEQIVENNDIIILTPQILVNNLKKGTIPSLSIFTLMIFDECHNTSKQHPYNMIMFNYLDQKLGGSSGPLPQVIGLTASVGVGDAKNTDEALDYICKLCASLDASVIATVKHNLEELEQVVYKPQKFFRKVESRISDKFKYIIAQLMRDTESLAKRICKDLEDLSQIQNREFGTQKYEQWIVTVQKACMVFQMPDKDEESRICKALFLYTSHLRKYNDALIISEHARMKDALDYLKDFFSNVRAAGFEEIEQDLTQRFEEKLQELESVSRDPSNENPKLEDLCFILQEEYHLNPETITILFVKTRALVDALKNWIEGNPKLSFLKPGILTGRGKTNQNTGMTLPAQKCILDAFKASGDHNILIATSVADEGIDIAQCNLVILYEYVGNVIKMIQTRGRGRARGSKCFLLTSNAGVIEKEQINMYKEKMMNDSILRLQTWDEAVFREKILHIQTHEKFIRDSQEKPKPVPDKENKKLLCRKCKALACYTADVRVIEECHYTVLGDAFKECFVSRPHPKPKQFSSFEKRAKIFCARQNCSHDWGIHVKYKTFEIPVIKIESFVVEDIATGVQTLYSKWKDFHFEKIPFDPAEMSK

T2: RIG-I wild-type (Homo sapiens, UniProt O95786 SEQ:1-925)
T2 chain: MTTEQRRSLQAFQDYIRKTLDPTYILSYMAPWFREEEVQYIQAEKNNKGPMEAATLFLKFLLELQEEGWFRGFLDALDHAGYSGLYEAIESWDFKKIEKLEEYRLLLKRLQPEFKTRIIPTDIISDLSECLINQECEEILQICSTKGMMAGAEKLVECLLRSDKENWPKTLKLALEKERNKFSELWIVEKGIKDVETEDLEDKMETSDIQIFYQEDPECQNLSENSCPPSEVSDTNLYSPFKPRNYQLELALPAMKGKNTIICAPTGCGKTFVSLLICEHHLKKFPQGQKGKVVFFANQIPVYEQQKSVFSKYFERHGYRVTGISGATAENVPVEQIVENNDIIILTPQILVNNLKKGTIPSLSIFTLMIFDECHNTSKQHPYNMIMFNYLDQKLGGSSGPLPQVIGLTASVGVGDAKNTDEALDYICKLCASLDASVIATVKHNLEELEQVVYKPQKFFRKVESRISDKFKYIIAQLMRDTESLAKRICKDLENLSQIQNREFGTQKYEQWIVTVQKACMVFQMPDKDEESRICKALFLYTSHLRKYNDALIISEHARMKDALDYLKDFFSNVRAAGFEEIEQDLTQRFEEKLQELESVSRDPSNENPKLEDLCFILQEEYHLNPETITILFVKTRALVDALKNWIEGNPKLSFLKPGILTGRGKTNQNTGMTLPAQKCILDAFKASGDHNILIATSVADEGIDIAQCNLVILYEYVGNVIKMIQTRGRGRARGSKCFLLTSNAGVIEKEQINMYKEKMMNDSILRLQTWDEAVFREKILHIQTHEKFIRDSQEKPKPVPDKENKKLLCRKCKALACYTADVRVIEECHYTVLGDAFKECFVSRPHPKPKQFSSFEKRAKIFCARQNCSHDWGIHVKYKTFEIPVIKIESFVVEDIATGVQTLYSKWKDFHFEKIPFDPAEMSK

T3: RIG-I-K270A (Homo sapiens, UniProt O95786 SEQ:1-925, K270A)
T3 sequence: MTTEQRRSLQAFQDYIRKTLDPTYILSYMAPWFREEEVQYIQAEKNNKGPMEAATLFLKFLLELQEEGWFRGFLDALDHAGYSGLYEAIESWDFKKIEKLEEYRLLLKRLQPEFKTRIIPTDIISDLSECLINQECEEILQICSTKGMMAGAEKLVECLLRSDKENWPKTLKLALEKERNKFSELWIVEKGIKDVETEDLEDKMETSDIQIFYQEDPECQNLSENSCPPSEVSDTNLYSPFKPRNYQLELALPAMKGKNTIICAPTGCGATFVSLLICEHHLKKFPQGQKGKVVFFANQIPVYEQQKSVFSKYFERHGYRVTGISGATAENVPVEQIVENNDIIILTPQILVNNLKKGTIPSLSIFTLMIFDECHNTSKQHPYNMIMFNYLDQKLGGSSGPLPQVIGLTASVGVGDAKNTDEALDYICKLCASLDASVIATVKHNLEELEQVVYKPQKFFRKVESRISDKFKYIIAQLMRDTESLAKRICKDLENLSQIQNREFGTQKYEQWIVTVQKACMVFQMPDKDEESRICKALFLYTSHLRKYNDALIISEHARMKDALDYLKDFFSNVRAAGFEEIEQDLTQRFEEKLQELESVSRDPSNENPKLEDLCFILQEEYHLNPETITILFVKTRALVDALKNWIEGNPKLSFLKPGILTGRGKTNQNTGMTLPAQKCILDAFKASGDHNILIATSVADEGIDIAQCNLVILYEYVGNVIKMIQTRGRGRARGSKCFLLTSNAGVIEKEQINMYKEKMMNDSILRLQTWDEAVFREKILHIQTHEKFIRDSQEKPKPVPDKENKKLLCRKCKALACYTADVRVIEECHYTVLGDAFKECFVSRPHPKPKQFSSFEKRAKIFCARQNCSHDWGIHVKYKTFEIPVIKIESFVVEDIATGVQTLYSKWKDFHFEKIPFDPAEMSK


Columns and labels:
[1] = target: T1, RIG-I-N495D; assay: EMSA; affinity comparable to WT; 1.5 mM MgCl2, room temperature; conditions: tags: Flag; purified from transfected HEK293T; label: 32P at 5' end of bottom strand; blunt 19 bp duplex
[2] = target: T2, RIG-I wild-type; assay: EMSA; two RIG-I:RNA complexes with increasing RIG-I; 20 mM Tris-HCl pH 8.0, 1.5 mM MgCl2, 1.5 mM DTT, room temperature; conditions: tags: Flag; purified from transfected HEK293T; label: 32P at 5' end of bottom strand; blunt 19 bp duplex
[3] = target: T3, RIG-I-K270A; assay: EMSA; affinity similar to WT; 1.5 mM MgCl2, room temperature; conditions: tags: Flag; purified from transfected HEK293T; label: 32P at 5' end of bottom strand; blunt 19 bp duplex
[4] = target: T2, RIG-I wild-type; assay: EMSA; forms the slowly migrating complex with dsRNA lacking 5'-triphosphate; 1.5 mM MgCl2, room temperature; conditions: tags: Flag; purified from transfected HEK293T; label: 32P at 5' end of bottom strand; blunt 19 bp duplex lacking 5'-triphosphate

Binder	binding result [1]	binding result [2]	binding result [3]	binding result [4]
5'-ppp-dsRNA 19mer (dsRNA, 5'-triphosphate on top strand) RNA 1: GCAUGCGACCUCUGUUUGA RNA 2: UCAAACAGAGGUCGCAUGC	binds	binds	binds	–
control dsRNA 19mer (dsRNA) RNA 1: GCAUGCGACCUCUGUUUGA RNA 2: UCAAACAGAGGUCGCAUGC	–	–	–	binds
